{"source": "paper PMC2953525", "about": "“Subtle Alterations in PCNA-Partner Interactions Severely Impair DNA Replication and Repair” (PLoS Biology, 2010)", "assay_in_all_cases": "Yeast two hybrid (Y2H) analysis of PCNA-partner interaction", "type_in_all_cases": "binding", "key": {"Msh6": {"system": "Msh6", "conditions": "YRG2 strain, growth on selective agar plates lacking histidine; growth similar to WT PCNA denoted as 1", "procedure": "(§1) For the Y2H assay, we used the YRG2 host strain, shown to be highly efficient in coupling the strength of protein-protein interactions with growth on media lacking histidine. Selected PCNA mutants were characterized for their ability to bind each of 12 main PCNA partners to obtain specificity profiles (Table 1, Table S1, and Figures S4–S5). […] However, in some cases a strong trade-off between the bindings of different partners was observed.\n(§2) Y2H analysis was performed using the Yeast Two Hybrid Phagemid vector kit (Stratagene), following the manufacturer's instructions. The pAD-PCNA-WT/mutant plasmids were used as bait while plasmids encoding 12 different PCNA partners (Table 1 and Table S1) were used as prey. The YRG2 host strain (Stratagene) was cotransformed with pAD-PCNA WT/mutant and pBD-partner plasmids in all possible combinations using the LiAC method. Single transformants were grown in liquid SC-Leu-Trp to O.D600 10, washed twice with DDW, and diluted to an initial OD600 of 0.3. A series of 10-fold serial dilutions was then spotted onto selective SC-Leu-Trp-His plates and incubated at 30°C for 3 d. For quantitative Y2H, the generation time of the indicated mutants and their respective partners were calculated from their growth curves in liquid SC-Leu-Trp-His media. Cells were grown overnight in SC-Leu-Trp, washed twice with ddH2O, and diluted by a factor of 1∶50 into 10 ml of pre-warmed SC-Leu-Trp-His. O.D600 measurements of the cultures were taken at the indicated time; the generation time (τ) was calculated from the growth curves according to the equation ODt = OD0×2^t/τ. The generation time calculated for each culture is an average of at least 3 independent experiments."}, "Pol32": {"system": "Pol32", "conditions": "YRG2 strain, growth on selective agar plates lacking histidine; growth similar to WT PCNA denoted as 1", "procedure": "as §1, §2"}, "Rad27": {"system": "Rad27", "conditions": "footnote c: generation time in liquid selective media lacking histidine relative to cells expressing WT PCNA; average of at least 3 independent experiments", "procedure": "as §1, §2"}, "Rad30": {"system": "Rad30", "conditions": "YRG2 strain, growth on selective agar plates lacking histidine; growth similar to WT PCNA denoted as 1", "procedure": "as §1, §2"}, "Ung1": {"system": "Ung1", "conditions": "YRG2 strain, growth on selective agar plates lacking histidine; growth similar to WT PCNA denoted as 1", "procedure": "as §1, §2"}, "Apn2": {"system": "Apn2", "parameters": "key: ++: major increase in growth; +: moderate increase in growth; similar growth as the WT PCNA-expressing cells; -: minor decrease in growth; --: moderate decrease in growth; ---: major decrease in growth", "conditions": "spotting onto selective agar plates; PCNA fused to AD, partner to BD", "procedure": "as §2\n(§3) Table S1: Yeast two hybrid analysis of binding of selected PCNA mutants with seven additional partners not described in Table 1 of the main text. […]\n(§4) pol30-Rad30E2 WT WT WT WT WT WT - pol30-Rad30E9 WT WT WT WT WT WT WT pol30-Rad27E6 WT WT WT WT + WT WT pol30-Rad27E31 WT WT WT WT + WT WT pol30-Rad27L1 WT -- WT WT -- WT WT pol30-Rad27L2 WT -- WT WT -- WT WT pol30-Pol32E5 WT WT WT WT WT WT WT pol30-Pol32E9 - WT WT WT WT WT WT pol30-Msh6E2 WT WT + WT WT WT WT pol30-Msh6E6 WT WT ++ WT WT WT WT pol30-Ung1E3 WT - WT WT WT WT WT pol30-79 --- --- --- - --- --- --- a PCNA mutants with enhanced affinities for the different target partners (see Table 1, text). b PCNA mutants were fused to the activating domain (AD), while the different partners were fused to the DNA-binding domain (BD). The growth of the resulting Y2H strains was compared to the growth of the WT PCNA-expressing strain following spotting onto selective agar plates (see Material and Methods). Growth rates on the agar plates were scored and tabulated as follows: ++ major increase in growth; + moderate increase in growth; WT-similar growth as the WT PCNA-expressing cells; - minor decrease in growth; -- moderate decrease in growth; --- major decrease in growth. ND-Not determined."}, "Cac1": {"system": "Cac1", "parameters": "key: ++: major increase in growth; +: moderate increase in growth; similar growth as the WT PCNA-expressing cells; -: minor decrease in growth; --: moderate decrease in growth; ---: major decrease in growth", "conditions": "spotting onto selective agar plates; PCNA fused to AD, partner to BD", "procedure": "as §2, §3, §4"}, "Cdc9": {"system": "Cdc9", "parameters": "key: ++: major increase in growth; +: moderate increase in growth; similar growth as the WT PCNA-expressing cells; -: minor decrease in growth; --: moderate decrease in growth; ---: major decrease in growth", "conditions": "spotting onto selective agar plates; PCNA fused to AD, partner to BD", "procedure": "as §2, §3, §4"}, "Eco1": {"system": "Eco1", "parameters": "key: ++: major increase in growth; +: moderate increase in growth; similar growth as the WT PCNA-expressing cells; -: minor decrease in growth; --: moderate decrease in growth; ---: major decrease in growth", "conditions": "spotting onto selective agar plates; PCNA fused to AD, partner to BD", "procedure": "as §2, §3, §4"}, "Msh3": {"system": "Msh3", "parameters": "key: ++: major increase in growth; +: moderate increase in growth; similar growth as the WT PCNA-expressing cells; -: minor decrease in growth; --: moderate decrease in growth; ---: major decrease in growth", "conditions": "spotting onto selective agar plates; PCNA fused to AD, partner to BD", "procedure": "as §2, §3, §4"}, "Rfc1": {"system": "Rfc1", "parameters": "key: ++: major increase in growth; +: moderate increase in growth; similar growth as the WT PCNA-expressing cells; -: minor decrease in growth; --: moderate decrease in growth; ---: major decrease in growth", "conditions": "spotting onto selective agar plates; PCNA fused to AD, partner to BD", "procedure": "as §2, §3, §4"}, "Rrm3": {"system": "Rrm3", "parameters": "key: ++: major increase in growth; +: moderate increase in growth; similar growth as the WT PCNA-expressing cells; -: minor decrease in growth; --: moderate decrease in growth; ---: major decrease in growth", "conditions": "spotting onto selective agar plates; PCNA fused to AD, partner to BD", "procedure": "as §2, §3, §4"}}}
{"molecule": "pol30-Rad27E31: PCNA mutant evolved for Rad27, IDCL sequence DGDYDVLKIREL (protein, left off: Gal4 activation domain, end not stated, kept) MLEAKFEEASLFKRIIDGFKDCVQLVNFQCKEDGIIAQAVDDSRVLLVSLEIGVEAFQEYRCDHPVTLGMDLTSLSKILRCGNNTDTLTLIADNTPDSIILLFEDTKKDRIAEYSLKLMDGDYDVLKIRELQYDSTLSLPSSEFSKIVRDLSQLSDSINIMITKETIKFVADGDIGSGSVIIKPFVDMEHPETSIKLEMDQPVDLTFGAKYLLDIIKGSSLSDRVGIRLSSEAPALFQFDLKSGFLQFFLAPKFNDEE", "values": [{"measurement": "Binding of PCNA Mutants to Target Partners: Msh6 (Y2H)", "setting": "Msh6", "result": 1}, {"measurement": "Binding of PCNA Mutants to Target Partners: Pol32 (Y2H)", "setting": "Pol32", "result": 1}, {"measurement": "Binding of PCNA Mutants to Target Partners: Rad27, fold increase or decrease (quantitative Y2H)", "setting": "Rad27", "result": "1.5 ^c fold"}, {"measurement": "Binding of PCNA Mutants to Target Partners: Rad30 (Y2H)", "setting": "Rad30", "result": 1}, {"measurement": "Binding of PCNA Mutants to Target Partners: Ung1 (Y2H)", "setting": "Ung1", "result": 1}, {"measurement": "Y2H growth relative to WT PCNA-expressing strain: Apn2", "setting": "Apn2", "result": "WT"}, {"measurement": "Y2H growth relative to WT PCNA-expressing strain: Cac1", "setting": "Cac1", "result": "+"}, {"measurement": "Y2H growth relative to WT PCNA-expressing strain: Cdc9", "setting": "Cdc9", "result": "WT"}, {"measurement": "Y2H growth relative to WT PCNA-expressing strain: Eco1", "setting": "Eco1", "result": "WT"}, {"measurement": "Y2H growth relative to WT PCNA-expressing strain: Msh3", "setting": "Msh3", "result": "WT"}, {"measurement": "Y2H growth relative to WT PCNA-expressing strain: Rfc1", "setting": "Rfc1", "result": "WT"}, {"measurement": "Y2H growth relative to WT PCNA-expressing strain: Rrm3", "setting": "Rrm3", "result": "WT"}]}
